Measured values reported in paper PMC8017925, “Structural basis for differential recognition of phosphohistidine-containing peptides by 1-pHis and 3-pHis monoclonal antibodies” (Proceedings of the National Academy of Sciences of the …, 2021).

Legend:
[1] = molecular target: ACLYana-3-pTza peptide (AGAG-3-pTza-AGAG); experiment: BLI binding kinetics of 3-pHis Fabs with cognate pTza peptide
Procedure: (§1) Biolayer interferometry (BLI) studies were performed to determine the relative affinity of pHis Fabs to in situ phosphorylated His peptides versus the phosphomimetic substrates. The N-terminally biotinylated peptides were immobilized on streptavidin biosensors and the rate of association (ka) and dissociation (kd) were determined by varying the pHis Fab concentration. Equilibrium dissociation constants (KD) were determined by fitting the experimental data to a 1:1 Langmuir binding model. ACLYana-1-pTza and ACLYana-3-pTza peptides were used to determine affinity to 1-pHis and 3-pHis Fabs, respectively (Fig. 3 A–E and Table 1). […] The two isomers were separated from each other by passing the reaction through affinity columns containing 1-pHis mAbs using SC1-1 or SC50-3 IgGs or 3-pHis mAbs using SC39-4, SC44-8, and SC56-2 IgGs. The eluates thus contained either predominantly 1-pHis or 3-pHis peptides. These peptides were used to determine the affinity to their respective isomer class of pHis Fabs (Fig. 3 F–J, Table 1, and SI Appendix, Fig. S5). […] This experimental observation is well supported by the higher number of hydrogen bonds that support the SC44-8:3-pTza interaction compared to other pHis Fabs (SI Appendix, Table S5). […] There are at least three reasons for the lower affinity of the mAbs for pHis peptides compared to pTza peptides: The continuous hydrolysis of phosphate from the pHis peptides during the course of the experiment (SI Appendix, Fig. S6), a reduction in the number of hydrogen bond interactions due to one less nitrogen in the imidazole ring compared to triazolyl ring (Fig. 4 and SI Appendix, Fig. S8), and inherently different electronic properties of the imidazole and triazolyl rings in His and Tza, respectively ([20]).
(§2) Fig. 3. Binding kinetics of pHis Fabs with cognate pTza and pHis peptides. BLI studies of immobilized peptides (ACLYana-1/3-pTza and phosphorylated ACLYana) with varying concentrations of the pHis Fabs were carried out in triplicate on an Octet Red96e instrument (FortéBio). SC1-1 (A) and SC50-3 (B) pHis Fab interaction with their ACLYana-1-pTza peptides. SC39-4 (C), SC44-8 (D), and SC56-2 (E) pHis Fabs interactions with ACLYana-3-pTza peptides. SC1-1 (F), SC50-3 (G), SC39-4 (H), SC44-8 (I), and SC56-2 (J) pHis Fabs interactions with their affinity-purified ACLYana-pHis peptides are represented, Right. The experimental data are represented in the black dashed lines and the nonlinear least-squares fitting was represented in the red continuous lines. The χ^2 for the goodness of fit is under 1.0 for the all the plots.
(§3) The binding kinetics of pHis Fabs with the peptides (pTza and pHis) were evaluated with an Octet RED96e (FortéBio). Streptavidin-coated biosensors (FortéBio) were presoaked in buffer containing 50 mM Hepes pH 8.0, 150 mM NaCl, 0.05% Tween-20, and 0.2% BSA for 15 min. The biotinylated pTza peptides or pHis peptides (20 nM) with and without phosphoramidate treatment were coated onto these streptavidin biosensors and analyzed for their binding to varying concentrations of the pHis Fabs with an association time of 120 s and dissociation time of 200 s. The entire set of experiments was repeated three times. The data were analyzed using the Octet software (FortéBio) and the rates of association and dissociation were obtained by global fitting data to the 1:1 Langmuir interaction model.

[2] = system: ACLYana-3-pHis peptide (AGAG-3-pHis-AGAG); experiment: BLI binding kinetics of 3-pHis Fabs with affinity-purified pHis peptide
Procedure: as §1, §2
as §3, with “model. […]” for “model.”
Peptides used in the DSF and BLI experiments were synthesized by the Salk Peptide Synthesis Core. These peptides were N-terminally biotinylated and C-terminally amidated. They were synthesized using standard Fmoc chemistry on a Gyros Protein Technologies Tribute peptide synthesizer with UV monitoring. Following the deprotection, peptides were analyzed by mass spectrometry and analytical HPLC by the Proteomics Core at Salk. The peptides were HPLC purified to 99% purity by 21st Century Biochemicals, Inc. The Fmoc-pTza’s were synthesized at 10 g scale for incorporation into the peptides. […]

[3] = BLI, immobilized biotinylated ACLYana-3-pTza, 1:1 Langmuir global fit, triplicate
[4] = BLI, affinity-purified ACLYana-3-pHis peptide, 1:1 Langmuir global fit, triplicate

B1: SC44-8: Fab of rabbit 3-pHis-specific monoclonal antibody with proclivity for GpHAGA motif (antibody, V domains shown)
VH: QSVKESGRGLVQPGGSLTLTCTASGFSIDSYGFSWVRQAPGKGLEHIGYLTAGGRAFYASWAKSRSTITRNTNENTVTLKMTSLTAADTATYFCAKLGSGNPVAIWGPGTLVTVSS
VL: QVLTQTPSFTSAAVGGTVTINCQSSQSVWRNKNLAWYQQKPGQPPKRLIYAIATLDSGVPSRFSGSGSGTQFTLTISDVQCDDAATYYCVGHYGSENDAYYAFGGGTEVVVK
Kd ([1]; BLI Octet RED96e, N-terminally biotinylated peptide (20 nM) on streptavidin biosensors, varying Fab concentration, 50 mM Hepes pH 8.0, 150 mM NaCl, 0.05% Tween-20, 0.2% BSA, association 120 s, dissociation 200 s, global fit 1:1 Langmuir, triplicate): 0.235 nM | dissociation rate, times slower than the other pHis Fabs ([1]; BLI, 3-pTza peptide): 70 times | ka [1, 3]: 156000 ± 457 M⁻¹ s⁻¹ | kd [1, 3]: 3.66e-05 ± 7.5e-07 s⁻¹ | ka [2, 4]: 93600 ± 319 M⁻¹ s⁻¹ | kd [2, 4]: 0.0017 ± 3.32e-06 s⁻¹ | Kd ([2]; BLI, ACLYana phosphorylated with phosphoramidate (8 h, 23 °C), 3-pHis isomer affinity-purified on 3-pHis IgG column, immobilized on streptavidin biosensors, Hepes pH 8.0, 1:1 Langmuir global fit, triplicate): 18.2 nM | BLI signal (maximum) with ACLYana ([2]; phosphorylated ACLYana, GpHAGAG motif): 2.0 nm | affinity for 3-pHis peptides, times (fold) weaker than for the 3-pTza peptide ([2]; ratio of BLI KD, 3-pHis versus 3-pTza peptide): 75 times
